The test deals with human serum albumin (HSA) (human), P02768. Description: FP. The following applies: modification not given.
With AEGTGDFWFCDRIAWYAQHLCEFLDPEGGGK [DX-236 Ala mutant 120], the Kd amounted to 1300 nM. For the molecule AEGTGAFWFCDRIAWYPQHLCEFLDPEGGGK [DX-236 Ala mutant 129], the Kd amounted to 5100 nM. As for AEGTGDFWFCDRIAWAPQHLCEFLDPEGGGK [DX-236 Ala mutant 121], the figure is 1400 nM; as for AEGTGDFWFCDRIAWYPAHLCEFLDPEGGGK [DX-236 Ala mutant 119], 2200 nM; as for AEGTGDFWFCARIAWYPQHLCEFLDPEGGGK [DX-236 Ala mutant 125], 5000 nM. As for AEGTGDFWFCDAIAWYPQHLCEFLDPEGGGK [DX-236 Ala mutant 124], the figure is 1500 nM.

In the case of AEGTGDFAFCDRIAWYPQHLCEFLDPEGGGK [DX-236 Ala mutant 127], the Kd was found to be 2300 nM.

As to AEGTGDAWFCDRIAWYPQHLCEFLDPEGGGK [DX-236 Ala mutant 128], the Kd amounted to 5100 nM. With AEGTGDFWFCDRIAAYPQHLCEFLDPEGGGK [DX-236 Ala mutant 122] the figure was 1400 nM; with AEGTGDFWFCDRIAWYPQHACEFLDPEGGGK [DX-236 Ala mutant 117], 2000 nM.

What is called Kd is the free concentration of one partner at which half of the binding sites on the other are occupied at equilibrium, for simple one-to-one binding. Higher therefore signals weaker binding.
